Publication PMC3656483 (Cell, 2013)
Values belong to the binder of their own block, whether it stands above or below them.

Columns and labels:
^CFPCul1–Rbx1 = ^CFPCul1–Rbx1 (UniProt Q13616 1-776; P62877 1-108); experiment: FRET or BRET
GST-Rbx1–Cul1 = GST-Rbx1–Cul1 (UniProt P62877 1-108; Q13616 1-776); experiment: pull-down
Sequence of GST-Rbx1–Cul1 (P62877 whole entry, chain 1 of 2): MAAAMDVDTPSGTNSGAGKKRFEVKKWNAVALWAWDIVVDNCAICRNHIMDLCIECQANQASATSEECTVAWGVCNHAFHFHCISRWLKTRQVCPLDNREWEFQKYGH
Sequence of GST-Rbx1–Cul1 (Q13616 whole entry, chain 2 of 2): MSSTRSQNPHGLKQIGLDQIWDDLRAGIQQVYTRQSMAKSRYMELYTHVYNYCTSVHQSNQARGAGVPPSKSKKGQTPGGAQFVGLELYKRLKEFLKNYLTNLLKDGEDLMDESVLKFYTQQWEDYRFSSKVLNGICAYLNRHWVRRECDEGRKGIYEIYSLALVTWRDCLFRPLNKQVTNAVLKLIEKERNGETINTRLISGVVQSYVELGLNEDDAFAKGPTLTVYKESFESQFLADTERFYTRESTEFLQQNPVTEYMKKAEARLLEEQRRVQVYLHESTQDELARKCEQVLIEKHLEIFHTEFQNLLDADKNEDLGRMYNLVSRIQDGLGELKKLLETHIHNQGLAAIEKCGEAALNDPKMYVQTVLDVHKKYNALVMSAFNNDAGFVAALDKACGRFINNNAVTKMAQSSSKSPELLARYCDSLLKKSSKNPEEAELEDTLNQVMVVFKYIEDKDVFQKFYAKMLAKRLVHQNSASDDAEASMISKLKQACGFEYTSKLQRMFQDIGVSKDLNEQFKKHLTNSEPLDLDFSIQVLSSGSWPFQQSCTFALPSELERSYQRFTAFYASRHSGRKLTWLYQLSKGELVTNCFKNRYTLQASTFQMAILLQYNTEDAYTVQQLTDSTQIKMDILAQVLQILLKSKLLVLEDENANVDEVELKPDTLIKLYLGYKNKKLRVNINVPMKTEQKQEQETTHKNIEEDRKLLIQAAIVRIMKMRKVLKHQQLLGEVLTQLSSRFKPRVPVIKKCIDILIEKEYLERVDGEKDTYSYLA

Sequence of ^CFPCul1–Rbx1 (Q13616 whole entry, chain 1 of 2): as the sequence (Q13616 whole entry, chain 2 of 2) above
Sequence of ^CFPCul1–Rbx1 (P62877 whole entry, chain 2 of 2): as the sequence (P62877 whole entry, chain 1 of 2) above

- Kd (^CFPCul1–Rbx1): ≤ 53 nM
B1: Cullin-associated and neddylation-dissociated protein 1 (Cand1) (natural protein, UniProt Q86VP6 1-1230, looked up)
chain: MASASYHISNLLEKMTSSDKDFRFMATNDLMTELQKDSIKLDDDSERKVVKMILKLLEDKNGEVQNLAVKCLGPLVSKVKEYQVETIVDTLCTNMLSDKEQLRDISSIGLKTVIGELPPASSGSALAANVCKKITGRLTSAIAKQEDVSVQLEALDIMADMLSRQGGLLVNFHPSILTCLLPQLTSPRLAVRKRTIIALGHLVMSCGNIVFVDLIEHLLSELSKNDSMSTTRTYIQCIAAISRQAGHRIGEYLEKIIPLVVKFCNVDDDELREYCIQAFESFVRRCPKEVYPHVSTIINICLKYLTYDPNYNYDDEDEDENAMDADGGDDDDQGSDDEYSDDDDMSWKVRRAAAKCLDAVVSTRHEMLPEFYKTVSPALISRFKEREENVKADVFHAYLSLLKQTRPVQSWLCDPDAMEQGETPLTMLQSQVPNIVKALHKQMKEKSVKTRQCCFNMLTELVNVLPGALTQHIPVLVPGIIFSLNDKSSSSNLKIDALSCLYVILCNHSPQVFHPHVQALVPPVVACVGDPFYKITSEALLVTQQLVKVIRPLDQPSSFDATPYIKDLFTCTIKRLKAADIDQEVKERAISCMGQIICNLGDNLGSDLPNTLQIFLERLKNEITRLTTVKALTLIAGSPLKIDLRPVLGEGVPILASFLRKNQRALKLGTLSALDILIKNYSDSLTAAMIDAVLDELPPLISESDMHVSQMAISFLTTLAKVYPSSLSKISGSILNELIGLVRSPLLQGGALSAMLDFFQALVVTGTNNLGYMDLLRMLTGPVYSQSTALTHKQSYYSIAKCVAALTRACPKEGPAVVGQFIQDVKNSRSTDSIRLLALLSLGEVGHHIDLSGQLELKSVILEAFSSPSEEVKSAASYALGSISVGNLPEYLPFVLQEITSQPKRQYLLLHSLKEIISSASVVGLKPYVENIWALLLKHCECAEEGTRNVVAECLGKLTLIDPETLLPRLKGYLISGSSYARSSVVTAVKFTISDHPQPIDPLLKNCIGDFLKTLEDPDLNVRRVALVTFNSAAHNKPSLIRDLLDTVLPHLYNETKVRKELIREVEMGPFKHTVDDGLDIRKAAFECMYTLLDSCLDRLDIFEFLNHVEDGLKDHYDIKMLTFLMLVRLSTLCPSAVLQRLDRLVEPLRATCTTKVKANSVKQEFEKQDELKRSAMRAVAALLTIPEAEKSPLMSEFQSQISSNPELAAIFESIQKDSSSTNLESMDTS

- koff (GST-Rbx1–Cul1): 1.2e-05 s⁻¹
B2: Cand1^TAMRA (natural protein, UniProt Q86VP6 1-1230, looked up)
chain: B1 chain
modifications: TAMRA (site not stated)
